# Legend:
# [1] = tested on: threonine; assay: Production of L-homoalanine from glucose by E. coli overexpressing GDH2 and threonine dehydratases; assay type: cell-based, Escherichia coli; details: ATCC98082, overexpressed in combination with GDH2
# Text: FIG. 5A is a graph with horizontal axis labels defined as follows: (1) BW25113; (2) BW25113 with overexpression of GDH2; (3) ATCC98082 with overexpression of TdcB & GDH2; (4) ATCC98082 with overexpression of IlvAEc & GDH2; (5) ATCC98082 with overexpression of IlvABS & GDH2; and (6) ATCC98082 (ArhtA) with overexpression of IlvABS and GDH2. FIG. 5B is a graph showing the yield of L-homolalanine biosynthesis from glucose. The error bars represent standard deviations from three independent experiments.
# To test the production of L-homoalanine from glucose, E. coli strain ATCC98082 harboring plasmid pZS_thrO (see, e.g. Zhang et al. (2008) Proc Natl Acad Sci USA 105(52):20653-20658) was transformed with pZElac_tdcB_GDH, pZElac_ilvAEC_GDH and pZElac_ilvABS_GDH. These transformants were subjected to fermentation using the following production medium: 30 g glucose, 17 g (NH4)2SO4, 2 g KH2PO4, 1 g MgSO4.7H2O, 2 g yeast extract, 0.1 g L-valine, 0.01 g FeSO4:7H2O and 0.01 g MnSO4:7H2O per liter. Antibiotics were added appropriately (ampicillin 50 mg/L, spectinomycin 25 mg/L). Overnight 2XYT culture were diluted 25× into fermentation medium and 0.1 mM isopropyl-b-D-thiogalactoside (IPTG) was added to induce protein expression. In shake flask experiments, the culture medium was buffered by addition of 30 g/L CaCO3. Cultures were incubated in 33° C. shaker (250 rpm) for 40-50 h until glucose was consumed.
# [2] = Enzymatic assay of purified glutamate dehydrogenases, amination of 2-ketobutyrate (NADPH consumption at 340 nm); assay type: biochemical; details: 100 mM Tris pH 8.0, 0.2M NH4Cl, 0.2 mM NADPH
# Method: To characterize the enzymes, both the wild-type glutamate dehydrogenase GDHwt and mutant GDH2 were added an N-terminal 6×His-tag, overexpressed, and purified through Ni-NTA columns. The kinetic parameters for […] of 2-ketoglutarate (cognate substrate) and 2-ketoisovalerate or 2-ketobutyrate (nonnatural substrates) were determined by monitoring the consumption of NADPH at 340 nm (FIG. 6). […] The increase in binding affinity is very helpful since high concentration of 2-ketobutyrate interferes with cellular metabolic activities (see, e.g. Daniel et al. (1983) Mol Gen Genet 190(3):452-458). On the basis of the crystallographic model for the active site of GDH, amino group of K92 hydrogenbonds to the γ-carboxyl group of 2-ketoglutarate and determines the substrate specificity (see, e.g. Stillman et al. (1993) J Mol Biol 234(4):1131-1139). Mutation of lysine to valine increases the hydrophobic character of the binding pocket, which explains why the specificity constant kcat/Km of GDH2 towards 2-ketobutyrate is 50-fold higher than that towards the natural substrate 2-ketoglutarate.
# Both gene fragments encoding wildtype glutamate dehydrogenase and GDH2 were amplified using primers GDHbamfwd and GDHbamrev. After digestion with BamHI, the gene fragments were inserted into expression plasmid pQE9 (Qiagen). The resulting expression plasmids were transformed into E. coli strain BL21(DE3) harboring pREP4 (Qiagen). Cells were inoculated from an overnight preculture at 1/100 dilution and grown in 200 mL 2XYT rich medium containing 50 mg/L ampicillin and 25 mg/L kanamycin. At an OD600 of 0.6, recombinant proteins were expressed by induction of the cell cultures with 0.1 mM IPTG, followed by incubation at 30° C. overnight. Overexpressed proteins were then purified with Ni-nitrilotriacetic acid columns. Protein concentration was determined by measuring UV absorbance at 280 nm.
# Enzymatic assay was performed in assay buffer (100 mM Tris buffer, pH 8.0) containing 0.2M NH4Cl, 0.2 mM NADPH, and various concentrations of 2-ketoacids. The reactions were started by adding the purified enzymes, and the consumption of NADPH was monitored at 340 nm (extinction coefficient, 6.22 mM^−1 cm^−1). Kinetic parameters (kcat and Km) were determined by fitting initial velocity data to the Michaelis-Menten equation using Origin.
# [3] = tested on: 2-ketobutyrate; assay: Conversion of fed 2-ketobutyrate to L-homoalanine by E. coli BW25113 overexpressing amination enzymes; assay type: cell-based, Escherichia coli; set-up: L-homoalanine produced: unit not given here; details: for L-homoalanine produced: 10 g/L 2-ketobutyrate fed, M9 medium, 37° C., 24 h
# Method: FIG. 2 is a graph comparing different amination enzymes on the production of L-homoalanine. E. coli cultures were inoculated in M9 medium with addition of 10 g/L 2-ketobutyrate and incubated at 37° C. for 24 h. The horizontal axis labels are defined as follows: (A) Wild-type E. coli BW25113; overexpression of (B) transaminase IlvE (C) valine dehydrogenase from Streptomyces avermitilis; (D) valine dehydrogenase from Streptomyces coelicolor, (E) valine dehydrogenase from Streptomyces fradiae; (F) evolved glutamate dehydrogenase GDH1; and (G) evolved glutamate dehydrogenase GDH2. The error bars represent standard deviations from three independent experiments.
# In order to check if any endogenous transaminase of E. coli can work on 2-ketobutyrate, we fed 10 g/L 2-ketobutyrate to wildtype E. coli strain BW25113 growing in M9 medium. […] Since the branched-chain amino acid aminotransferase IlvE (see, e.g. Inoue K, et al. (1988) J Biochem 104(5):777-784) is likely to be a functional candidate, we cloned and overexpressed IlvE in BW25113, which increased the production of L-homoalanine to […] (FIG. 2B). […] However, high concentration of glutamate is needed to drive the reaction equilibrium because transamination is a reversible reaction process. Even under such extreme conditions, the conversion rate of transaminating 2-ketobutyrate to L-homoalanine is only 32%.
# To test the conversion of 2-ketobutyrate to L-homoalanine, plasmids pZElac_IlvE, pZElac_VDHsa, pZElac_VDHsc, pZElac_VDHsf, pZElac_GDH and pZElac_GDH2 were transformed into BW25113. The transformants were inoculated in M9 medium with 5 g/L yeast extract, 10 g/L ammonium hydrochloride and 20 g/L glucose. Once OD reached ˜1.0, 10 g/L 2-ketobutyrate plus 0.1 mM IPTG were added and incubated at 37° C. for 24 h. Amino acids were quantified as o-phthaldialdehyde (OPA) derivatives by HPLC analysis.
Molecule,L-homoalanine produced from glucose [1] [g/L],threonine remaining in fermentation medium [1] [g/L],L-homoalanine produced ([3]; BW25113 transformant),further results
"IlvABS: biosynthetic threonine dehydratase IlvA from Bacillus subtilis (protein, listed as Bacillus subtilis) MKPLLKENSLIQVKDILKAHQNVKDVVIHTPLQRNDRLSERYECNIYLKREDLQVVRSFKLRGAYHKMKQLSSEQTENGVVCASAGNHAQGVAFSCKHLGIHGKIFMPSTTPRQKVSQVELFGKGFIDIILTGDTFDDAYKSAAECCEAESRTFIHPFDDPDVMAGQGTLAVEILNDIDTEPHFLFASVGGGGLLSGVGTYLKNVSPDTKVIAVEPAGAASYFESNKAGHVVTLDKIDKFVDGAAVKKIGEETFRTLETVVDDILLVPEGKVCTSILELYNECAVVAEPAGALSVAALDLYKDQIKGKNVVCVVSGGNNDIGRMQEMKERSLIFEGLQHYFIVNFPQRAGALREFLDEVLGPNDDITRFEYTKKNNKSNGPALVGIELQNKADYGPLIERMNKKPFHYVEVNKDEDLFHLLI",3.8,2.5,–,–
"GDHwt: wild-type glutamate dehydrogenase of E. coli, N-terminal 6×His-tag (protein, listed as Escherichia coli, N-terminal 6xHis tag, wild-type glutamate dehydrogenase of E. coli, N-terminal 6×His-tag) MDQTYSLESFLNHVQKRDPNQTEFAQAVREVMTTLWPFLEQNPKYRQMSLLERLVEPERVIQFRVVWVDDRNQIQVNRAWRVQFSSAIGPYKGGMRFHPSVNLSILKFLGFEQTFKNALTTLPMGGGKGGSDFDPKGKSEGEVMRFCQALMTELYRHLGADTDVPAGDIGVGGREVGFMAGMMKKLSNNTACVFTGKGLSFGGSLIRPEATGYGLVYFTEAMLKRHGMGFEGMRVSVSGSGNVAQYAIEKAMEFGARVITASDSSGTVVDESGFTKEKLARLIEIKASRDGRVADYAKEFGLVYLEGQQPWSLPVDIALPCATQNELDVDAAHQLIANGVKAVAEGANMPTTIEATELFQQAGVLFAPGKAANAGGVATSGLEMAQNAARLGWKAEKVDARLHHIMLDIHHACVEHGGEGEQTNYVQGANIAGFVKVADAMLAQGVI",–,–,–,kcat towards 2-ketobutyrate [2]: 47.2 s⁻¹; Km ([2]; read-out: Km towards 2-ketobutyrate): 35.4 mM
"TdcB: catabolic threonine dehydratase of E. coli (protein, listed as Escherichia coli) MHITYDLPVAIDDIIEAKQRLAGRIYKTGMPRSNYFSERCKGEIFLKFENMQRTGSFKIRGAFNKLSSLTDAEKRKGVVACSAGNHAQGVSLSCAMLGIDGKVVMPKGAPKSKVAATCDYSAEVVLHGDNFNDTIAKVSEIVEMEGRIFIPPYDDPKVIAGQGTIGLEIMEDLYDVDNVIVPIGGGGLIAGIAVAIKSINPTIRVIGVQSENVHGMAASFHSGEITTHRTTGTLADGCDVSRPGNLTYEIVRELVDDIVLVSEDEIRNSMIALIQRNKVVTEGAGALACAALLSGKLDQYIQNRKTVSIISGGNIDLSRVSQITGFVDA",0.18,3.7,–,glutamate accumulated [1]: 4 g/L
"IlvE: branched-chain amino acid aminotransferase of E. coli (protein, UniProt P0AB80 2-309, looked up) Branched-chain-amino-acid …: TTKKADYIWFNGEMVRWEDAKVHVMSHALHYGTSVFEGIRCYDSHKGPVVFRHREHMQRLHDSAKIYRFPVSQSIDELMEACRDVIRKNNLTSAYIRPLIFVGDVGMGVNPPAGYSTDVIIAAFPWGAYLGAEALEQGIDAMVSSWNRAAPNTIPTAAKAGGNYLSSLLVGSEARRHGYQEGIALDVNGYISEGAGENLFEVKDGVLFTPPFTSSALPGITRDAIIKLAKELGIEVREQVLSRESLYLADEVFMSGTAAEITPVRSVDGIQVGEGRCGPVTKRIQQAFFGLFTGETEDKWGWLDQVNQ",–,–,1.2,"L-homoalanine titer ([3]; BW25113 transformant, 10 g/L 2-ketobutyrate plus additional 10 g/L glutamate): 3.2 g/L; conversion rate of 2-ketobutyrate to L-homoalanine ([3]; with 10 g/L glutamate as amino donor): 32%"
"GDH1 (protein, UniProt P07262 2-454, looked up) NADP-specific glutamate …: SEPEFQQAYEEVVSSLEDSTLFEQHPEYRKVLPIVSVPERIIQFRVTWENDKGEQEVAQGYRVQYNSAKGPYKGGLRFHPSVNLSILKFLGFEQIFKNSLTGLDMGGGKGGLCVDLKGRSNNEIRRICYAFMRELSRHIGQDTDVPAGDIGVGGREIGYLFGAYRSYKNSWEGVLTGKGLNWGGSLIRPEATGYGLVYYTQAMIDYATNGKESFEGKRVTISGSGNVAQYAALKVIELGGTVVSLSDSKGCIISETGITSEQVADISSAKVNFKSLEQIVNEYSTFSENKVQYIAGARPWTHVQKVDIALPCATQNEVSGEEAKALVAQGVKFIAEGSNMGSTPEAIAVFETARSTATGPSEAVWYGPPKAANLGGVAVSGLEMAQNSQRITWTSERVDQELKRIMINCFNECIDYAKKYTKDGKVLPSLVKGANIASFIKVSDAMFDQGDVF",–,–,1.6,–

# Source: US9550980B2, “Composition and methods for the production of L-homoalanine” (The Regents of the University of California, priority 2010, dated 2017)
